This is an account of results in article PMC5715260.

What is called stoichiometry N is a count of units in the complex or per binding partner.

What all share (test): high performance liquid chromatography; mass of the native TTR compared with the subunit mass; data not shown
Assay [1] has as its target pigC/crocTTR (Crocodylus porosus TTR with the C-terminal sequence changed to that of S. scrofa TTR) (Crocodylus porosus | Sus scrofa) (UniProt O55245).
In assay [2] the target is pigC/huTTR (human TTR with the C-terminal sequence changed to that of Sus scrofa TTR) (human | Sus scrofa).
The target of assay [3] is xenoN/pigC/huTTR (human TTR with the N-terminal and C-terminal sequences changed to those of Xenopus laevis and S. scrofa, respectively) (Xenopus laevis | human | Sus scrofa) (UniProt B7ZS96).

pigC/huTTR (human TTR with the C-terminal sequence changed to that of Sus scrofa TTR), sequence (P50390 whole entry): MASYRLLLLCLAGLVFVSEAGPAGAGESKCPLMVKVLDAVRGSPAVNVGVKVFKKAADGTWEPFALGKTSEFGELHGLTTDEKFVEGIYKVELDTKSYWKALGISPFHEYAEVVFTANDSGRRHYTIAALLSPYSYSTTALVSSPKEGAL
xenoN/pigC/huTTR (human TTR with the N-terminal and C-terminal sequences changed to those of Xenopus laevis and S. scrofa, respectively), sequence (P50390 whole entry, looked up): as the sequence (P50390 whole entry) above
xenoN/pigC/huTTR (human TTR with the N-terminal and C-terminal sequences changed to those of Xenopus laevis and S. scrofa, respectively), sequence (B7ZS96 whole entry, looked up): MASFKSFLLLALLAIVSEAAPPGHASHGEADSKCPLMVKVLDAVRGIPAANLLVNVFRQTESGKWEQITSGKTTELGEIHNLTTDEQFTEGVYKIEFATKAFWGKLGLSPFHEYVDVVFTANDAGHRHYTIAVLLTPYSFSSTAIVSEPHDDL

Turning to “pigC/crocTTR (Crocodylus porosus TTR with the C-terminal sequence changed to that of S. scrofa TTR) (from UniProt O55245 21-114; P50390 135-150)”, in assay [1], the stoichiometry N is 4.

On to “pigC/huTTR (human TTR with the C-terminal sequence changed to that of Sus scrofa TTR) (from UniProt P50390 141-150)”, for which, in assay [2], the stoichiometry N was found to be 4.

Substance “xenoN/pigC/huTTR (human TTR with the N-terminal and C-terminal sequences changed to those of Xenopus laevis and S. scrofa, respectively) (from UniProt B7ZS96 1-9; P50390 141-150)” displayed a stoichiometry N in assay [3] of 4.
